Assay results published in paper PMC10676424, “VirB, a transcriptional activator of virulence in Shigella flexneri, uses CTP as a cofactor” (Communications Biology, 2023).

Tests used:
Sfl VirB = biological target: T1, Sfl VirB (Shigella flexneri, UniProt P0A247); assay: isothermal titration calorimetry; type: binding
T1 construct: full length, N-terminal GFP tag removed with HRV-3C protease, made in E. coli BL21-Gold (DE3), dimer; gene on invasion plasmid pINV

[1] = biological target: the molecule itself; assay: cross-linking; plasmid entrapment assay: 2 uM VirB, 250 uM CTP, 50 nM plasmid DNA, 1 mM BMOE, room temperature; low stringency buffer (150 mM NaCl, 50 mM Tris-HCl pH 7.5, 5 mM MgCl2) or high stringency buffer (25 mM HEPES/NaOH pH 7.5, 500 mM NaCl, 5 mM MgCl2, 1 mM DTT, 10 uM BSA, 0.01% Tween 20); SDS-PAGE and agarose gel
[2] = biological target: the molecule itself; assay: cross-linking; site-specific cysteine cross-linking with 1 mM BMOE; 10 uM protein, with or without 1 mM CTP and 1 uM 40-bp DNA; 150 mM NaCl (also 500/1000 mM), 50 mM Tris-HCl pH 7.5, 5 mM MgCl2; room temperature (25 °C); SDS-PAGE, Coomassie, band quantification

Nc1ccn([C@@H]2O[C@H](COP(=O)(O)OP(=O)(O)OP(=O)(O)O)[C@@H](O)[C@H]2O)c(=O)n1 [CTP]
Kd (Sfl VirB): ~1000 nM

B1: VirB(C5S, Q15C, A297C) (natural protein)
chain: MVDLSNDLLSIKEGCKKEFTLHSGNKVSFIKAKIPHKRIQDLTFVNQKTNVRDQESLTEESLADIIKTIKLQQFFPVIGREIDGRIEILDGTRRRASAIYAGADLEVLYSKEYISTLDARKLANDIQTAKEHSIRELGIGLNFLKVSGMSYKDIAKKENLSRAKVTRAFQAASVPQEIISLFPIASELNFNDYKILFNYYKGLEKANESLSSTLPILKEEIKDLDTNLPPDIYKKEILNIIKKSKNRKQNPSLKVDSLFISKDKRTYIKRKENKTNRTLIFTLSKINKTVQREIDECIRDIISRHLSSS
notes: not shown: GFP, N-terminal, cleaved
stoichiometry N [1]: 2

B2: VirB (natural protein)
chain: MVDLCNDLLSIKEGQKKEFTLHSGNKVSFIKAKIPHKRIQDLTFVNQKTNVRDQESLTEESLADIIKTIKLQQFFPVIGREIDGRIEILDGTRRRASAIYAGADLEVLYSKEYISTLDARKLANDIQTAKEHSIRELGIGLNFLKVSGMSYKDIAKKENLSRAKVTRAFQAASVPQEIISLFPIASELNFNDYKILFNYYKGLEKANESLSSTLPILKEEIKDLDTNLPPDIYKKEILNIIKKSKNRKQNPSLKVDSLFISKDKRTYIKRKENKTNRTLIFTLSKINKTVQREIDEAIRDIISRHLSSS
notes: as for B1
binding result [2]: binds

B3: VirB(C5S, I30C) (natural protein)
chain: MVDLSNDLLSIKEGQKKEFTLHSGNKVSFCKAKIPHKRIQDLTFVNQKTNVRDQESLTEESLADIIKTIKLQQFFPVIGREIDGRIEILDGTRRRASAIYAGADLEVLYSKEYISTLDARKLANDIQTAKEHSIRELGIGLNFLKVSGMSYKDIAKKENLSRAKVTRAFQAASVPQEIISLFPIASELNFNDYKILFNYYKGLEKANESLSSTLPILKEEIKDLDTNLPPDIYKKEILNIIKKSKNRKQNPSLKVDSLFISKDKRTYIKRKENKTNRTLIFTLSKINKTVQREIDEAIRDIISRHLSSS
notes: also called engineered C5S, I30C; not shown: GFP, N-terminal, cleaved
binding result [2]: binds
